The results in this text go back to paper PMC11662666 (Nucleic Acids Research, 2024).

Data set [1] concerns the target Giardia intestinalis deoxyadenosine kinase lacking the N- and C-termini (dAK-ΔNΔC, amino acids 30-232) (Giardia intestinalis (assemblage A isolate WB)). In words: mass photometry; Refeyn 2MP, protein in PBS; 50 nM by the methods, 65 nM by the results.
Data set [2] deals with T1, deoxyadenosine kinase (dAK) (Giardia duodenalis, UniProt A8B9V6).
T1 sequence (A8B9V6 1-251): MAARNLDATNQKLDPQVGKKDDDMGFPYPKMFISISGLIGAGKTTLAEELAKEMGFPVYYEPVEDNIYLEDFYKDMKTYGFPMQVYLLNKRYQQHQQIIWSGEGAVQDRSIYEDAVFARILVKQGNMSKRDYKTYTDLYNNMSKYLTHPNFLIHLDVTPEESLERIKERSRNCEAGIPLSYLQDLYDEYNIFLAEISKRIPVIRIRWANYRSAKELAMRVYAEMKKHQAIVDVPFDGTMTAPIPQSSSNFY
In words: enzyme inhibition kinetics with purified dAK; co-purified dATP seen by HPLC. The class given is biochemical. The arrangement: gene GL50803_0017451; full-length dAK.

Data set [3] addresses T1, deoxyadenosine kinase (dAK). Kind of data set: X-ray crystal structure at […] Å (co-purified ligand); HPLC of bound nucleotides; enzyme inhibition. The class given is binding. The arrangement: gene GL50803_0017451; full-length dAK (untagged after TEV cleavage).
For data set [4], the target named is Giardia intestinalis deoxyadenosine kinase lacking the N-terminus (dAK-ΔN, amino acids 30-251) (Giardia intestinalis (assemblage A isolate WB)). Kind of data set: mass photometry; Refeyn 2MP, protein in PBS; 50 nM by the methods, 65 nM by the results.
The target in data set [5] is Giardia intestinalis deoxyadenosine kinase lacking the C-terminus (dAK-ΔC, amino acids 1-232) (Giardia intestinalis (assemblage A isolate WB)). Described as above.
Data set [6] addresses Giardia intestinalis deoxyadenosine kinase (Giardia intestinalis (assemblage A isolate WB)). The description is as above.
Data set [7] shares this target. In words: SEC; Superdex 200 10/300 GL, 150 mM KCl, 50 mM Tris-HCl pH 7.6, 0.4 ml/min; protein at 0.1 mg/ml (4 μM); mass from a standard curve. On the technique in general: Size exclusion chromatography separates by hydrodynamic size, large species first.
Data set [8] shares this target. In words: crystal structure + cryo-EM structure.
Substrate in data set [9]: Nc1nc(F)nc2c1ncn2[C@@H]1O[C@H](CO)[C@@H](O)[C@@H]1O
Kind of data set: steady-state kinetics with purified enzyme, HPLC (KM). The class given is biochemical, Giardia duodenalis. The following applies: ATP and Mg2+ (phosphate donor in assay).

Substrate in data set [10]: Nc1nc(I)nc2c1ncn2[C@H]1C[C@H](O)[C@@H](CO)O1
The description is as above. The class given is biochemical, Giardia duodenalis. The following applies: ATP and Mg2+ (phosphate donor in assay).

Substrate in data set [11]: Nc1nc(Cl)nc2c1ncn2[C@@H]1O[C@H](CO)[C@@H](O)[C@@H]1F
The description is as above. The class given is biochemical, Giardia duodenalis. Particulars: ATP and Mg2+ (phosphate donor in assay).

Substrate in data set [12]: Nc1ncnc2c1ncn2[C@@H]1O[C@H](CO)[C@@H](O)[C@@H]1F
Described as above. The data set is classed as biochemical, Giardia duodenalis. The following applies: ATP and Mg2+ (phosphate donor in assay).

Substrate in data set [13]: Nc1ncnc2c1ncn2[C@@H]1O[C@H](CO)[C@@H](O)[C@@H]1O
The data set is described as above. The data set is classed as biochemical, Giardia duodenalis. The following applies: ATP and Mg2+ (phosphate donor in assay).

Substrate in data set [14]: Nc1ncnc2c1ncn2[C@H]1C[C@H](O)[C@@H](CO)O1
In words: purified protein. Particulars: ATP and Mg2+ (phosphate donor in assay) active site.

Substrate in data set [15]: Nc1nc(Cl)nc2c1ncn2[C@H]1C[C@H](O)[C@@H](CO)O1
In words: purified protein. Particulars: ATP and Mg2+ (phosphate donor in assay) active site (2-Cl towards F72, modelled).

Where “and” joins values, the source holds several entries; their conditions need not be identical. Equal entries are not always repeated.

Broadly, the stoichiometry N is a count of units in the complex or per binding partner. Broadly, the Ki is the dissociation constant of the complex between target and ligand, obtained from inhibition or displacement. A high value points to weaker binding. By Km is commonly meant the substrate concentration at which the rate is half of its maximum. Broadly, the Vmax is the rate approached at saturating substrate. A word on the kcat: it is the number of substrate molecules converted per active site and unit of time at saturation. For orientation: kcat/Km means the second-order rate constant that governs catalysis at low substrate concentration.

As to “Giardia intestinalis deoxyadenosine kinase lacking the N- and C-termini (dAK-ΔNΔC, amino acids 30-232) (domain or fragment)”, the stoichiometry N in [1] amounted to 2.

For `Nc1ncnc2c1ncn2[C@H]1C[C@H](O)[C@@H](COP(=O)(O)OP(=O)(O)OP(=O)(O)O)O1` [dATP, deoxyadenosine triphosphate], the Ki in data set [2] came out at 840 ± 220 nM.

Turning to `Nc1ncnc2c1ncn2[C@H]1C[C@H](O)[C@@H](COP(=O)(O)O)O1` [dAMP, deoxyadenosine monophosphate], in data set [3], the “X-ray crystal structure at 2.1 Å (co-purified ligand); HPLC of bound nucleotides” value is reported as “the density for active site II unambiguously allowed for the placement of a dAMP”.

For the molecule “Giardia intestinalis deoxyadenosine kinase lacking the N-terminus (dAK-ΔN, amino acids 30-251) (domain or fragment)”, the stoichiometry N in data set [4] is 4 and 2.

Consider “Giardia intestinalis deoxyadenosine kinase lacking the C-terminus (dAK-ΔC, amino acids 1-232) (domain or fragment)”, for which the stoichiometry N in [5] was 2 and 4.

For “Giardia intestinalis deoxyadenosine kinase (enzyme)”, the stoichiometry N in data set [6], in data set [7] and in data set [8] was 4 in each case.

B1: deoxyadenosine kinase (dAK) (Giardia lamblia ATCC 50803) (protein)
chain: MAARNLDATNQKLDPQVGKKDDDMGFPYPKMFISISGLIGAGKTTLAEELAKEMGFPVYYEPVEDNIYLEDFYKDMKTYGFPMQVYLLNKRYQQHQQIIWSGEGAVQDRSIYEDAVFARILVKQGNMSKRDYKTYTDLYNNMSKYLTHPNFLIHLDVTPEESLERIKERSRNCEAGIPLSYLQDLYDEYNIFLAEISKRIPVIRIRWANYRSAKELAMRVYAEMKKHQAIVDVPFDGTMTAPIPQSSSNFY
notes: full-length dAK
As to B1, the Km is 8.40 ± 0.60 µM in data set [9]; 4.78 ± 0.17 µM in [10]; 6.23 ± 1.33 µM in [11]; 2.66 ± 0.11 µM in data set [12]; 6.70 ± 0.07 µM in data set [13]; 1.12 ± 0.37 µM in data set [14]. Further, the Km in data set [15] was found to be 0.51 ± 0.08 µM. For the same molecule, the Vmax in data set [9] worked out at 7.2 µmol/min/mg; in data set [10], 13.7 µmol/min/mg; in data set [11], 7.26 µmol/min/mg; in data set [12], 7.64 µmol/min/mg; in data set [13], 6.6 µmol/min/mg; in data set [14] it was 10.3 µmol/min/mg. Further, the maximal velocity (Vmax) in data set [15] was determined as 5.78 µmol/min/mg. Also, the kcat in data set [9] is 3.48 s⁻¹; in data set [10] it was 6.63 s⁻¹; in data set [11] it was 3.51 s⁻¹; in data set [12], 3.69 s⁻¹; in data set [13] it was 3.19 s⁻¹; in [14] it was 4.96 s⁻¹. The catalytic constant (kcat) in data set [15] is 2.79 s⁻¹. Also, the kcat/Km in [9] came out at 414000 M⁻¹ s⁻¹; in [10] it was 1.39e+06 M⁻¹ s⁻¹; in data set [11], 563000 M⁻¹ s⁻¹; in data set [12], 1.39e+06 M⁻¹ s⁻¹; in data set [13] it was 476000 M⁻¹ s⁻¹; in data set [14], 4.43e+06 M⁻¹ s⁻¹. For the same molecule, in data set [15], the kcat/Km amounted to 5.48e+06 M⁻¹ s⁻¹.
